# Laboratory results reported in the supplement of paper PMC10724198.
# ± gives the standard deviation of the averaged measurements.
# System: Saccharomyces cerevisiae
# Experiment: protein stability index of tFT-peptide fusion (C-terminal peptide) (PSI (0-1 scale)); higher = more stable (slower turnover)
# Conditions: temperature: 30 C
# Experimental: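 MPS profiling in S. cerevisiae of the yeast C-terminome library: the last 12 aa of each annotated ORF are fused to the C-terminus of a sfGFP-mCherry timer, after a GGGS linker. Cells are FACS-sorted into 8 mCherry/sfGFP bins and deep-sequenced. PSI runs from 0 (unstable) to 1 (stable); wild type and das1Δ backgrounds, two technical replicates each.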
# [1] = genetic background: das1 deletion
Sequence,protein stability index [1],protein stability index (genetic background: wild type)
PGLRRQHTRNFL [YMR294W-A C-terminal 12 aa],0.697 ± 0.01,0.737 ± 0.042
VVVVPSVVETRK [SSO2 C-terminal 12 aa],0.681 ± 0.031,0.668 ± 0.026
LEDEDVVTILKK [RBG1 C-terminal 12 aa],0.705 ± 0.021,0.707 ± 0.0083
SKSFPTAGEMRA [PET8 C-terminal 12 aa],0.711 ± 0.035,0.7283 ± 0.0038
REWFDIELNFSK [PMT4 C-terminal 12 aa],0.7467 ± 0.0068,0.73 ± 0.024
KKLRQPKEGETF [MMS2 C-terminal 12 aa],0.7046 ± 0.00082,0.6737 ± 0.00082
SFRLTKRQTDND [POS5 C-terminal 12 aa],0.7021 ± 0.0053,0.709 ± 0.033
QRASSRPKERRK [MSB4 C-terminal 12 aa],0.711 ± 0.019,0.713 ± 0.016
YVIVFFVYDSLL [YOL046C C-terminal 12 aa],0.238 ± 0.0075,0.283 ± 0.015
ILSWYFLETVAV [YMR254C C-terminal 12 aa],0.317 ± 0.024,0.34 ± 0.018
DSYKLMHSHIHP [IZH1 C-terminal 12 aa],0.691 ± 0.01,0.6721 ± 0.0056
ALSKVGIYTIAN [PAU10 C-terminal 12 aa],0.702 ± 0.013,0.675 ± 0.042
FQERIKNKNILK [CWC27 C-terminal 12 aa],0.739 ± 0.008,0.729 ± 0.0083
QLNLVVNGVRLN [YLR379W C-terminal 12 aa],0.674 ± 0.021,0.655 ± 0.016
MFTSDKKTEQTT [URC2 C-terminal 12 aa],0.708 ± 0.0052,0.695 ± 0.011
TPKYVESDEDDQ [TOF2 C-terminal 12 aa],0.654 ± 0.041,0.7196 ± 0.0037
KVHEHDAKNDSK [CMP2 C-terminal 12 aa],0.702 ± 0.032,0.688 ± 0.054
SIDQFRGKLNSI [URA1 C-terminal 12 aa],0.701 ± 0.015,0.688 ± 0.013
KRGEIYETGKFF [OLE1 C-terminal 12 aa],0.707 ± 0.011,0.723 ± 0.011
SKTSHNPNEQSV [PDR11 C-terminal 12 aa],0.6953 ± 0.0037,0.687 ± 0.025
KGKLITKVNNEE [YML131W C-terminal 12 aa],0.648 ± 0.029,0.628 ± 0.04

Sequence,protein stability index [1],protein stability index (genetic background: wild type)
PHVKLFETTSGL [IRC5 C-terminal 12 aa],0.718 ± 0.021,0.712 ± 0.014
EVALAPSSNMIF [YKL083W C-terminal 12 aa],0.716 ± 0.02,0.713 ± 0.0034
HGRESANGISKQ [YLR374C C-terminal 12 aa],0.679 ± 0.015,0.65531 ± 0.00026
KIGKGKLYFAIV [YDR220C C-terminal 12 aa],0.666 ± 0.011,0.491 ± 0.015
VGDIVWKIRNIN [TTI1 C-terminal 12 aa],0.689 ± 0.026,0.1985 ± 0.0019
FSGDMSFTVYQL [POA1 C-terminal 12 aa],0.741 ± 0.01,0.699 ± 0.041
EEWYTSNHDSLA [PRP18 C-terminal 12 aa],0.723 ± 0.013,0.698 ± 0.014
ISVSSGIENFAT [YJL202C C-terminal 12 aa],0.692 ± 0.042,0.654 ± 0.019
DFIRGVAVFMHI [YMR272W-A C-terminal 12 aa],0.691 ± 0.02,0.66587 ± 0.00052
GPCVDALLSLSE [VPS9 C-terminal 12 aa],0.74 ± 0.0083,0.716 ± 0.048
QYQHQHQQDPRT [NAF1 C-terminal 12 aa],0.701 ± 0.014,0.728 ± 0.049
KNSDSTEKNATI [DAT1 C-terminal 12 aa],0.702 ± 0.026,0.736 ± 0.034
FCLQCFKDYCYS [SPO1 C-terminal 12 aa],0.6444 ± 0.0063,0.654 ± 0.032
ARGRRRSKGFKV [RPL18A C-terminal 12 aa],0.722 ± 0.03,0.696 ± 0.016
SLDGDTYFIIRS [YDL158C C-terminal 12 aa],0.713 ± 0.024,0.688 ± 0.033
ANGRHPQPSITL [CDC33 C-terminal 12 aa],0.71 ± 0.016,0.709 ± 0.0097
KLLIRFILLVNS [YPR130C C-terminal 12 aa],0.172 ± 0.016,0.111 ± 0.0048
STTADSTTNSAN [YLR146W-A C-terminal 12 aa],0.696 ± 0.014,0.664 ± 0.011
RGENGQFWIGTK [BNI5 C-terminal 12 aa],0.744 ± 0.027,0.702 ± 0.03
GVALAGALAFLI [HOR7 C-terminal 12 aa],0.68751 ± 0.00021,0.66173 ± 0.00053
IKSLFSLAKEAS [MSC7 C-terminal 12 aa],0.703 ± 0.01,0.5867 ± 0.0023

Sequence,protein stability index [1],protein stability index (genetic background: wild type)
TALNSGRSRDVK [YJL027C C-terminal 12 aa],0.6821 ± 0.0027,0.678 ± 0.019
ACILMAISQFNS [KSH1 C-terminal 12 aa],0.619 ± 0.013,0.6333 ± 0.0061
SNKKLKSQWLIK [EMC1 C-terminal 12 aa],0.722 ± 0.017,0.665 ± 0.0081
LNTSNECCTSDD [BIL2 C-terminal 12 aa],0.692 ± 0.023,0.669 ± 0.016
TKVYFLGRDSSV [NDE2 C-terminal 12 aa],0.688 ± 0.013,0.6764 ± 0.0011
QRERINNYISVY [VMA6 C-terminal 12 aa],0.352 ± 0.02,0.388 ± 0.0092
MMTRENMDMGER [RRP3 C-terminal 12 aa],0.669 ± 0.044,0.649 ± 0.027
TSIEEDLASKSE [RTA1 C-terminal 12 aa],0.689 ± 0.02,0.676 ± 0.008
EDTVNDKANFEG [STL1 C-terminal 12 aa],0.673 ± 0.015,0.655 ± 0.015
VFLVISQHSLHS [YDR545C-A C-terminal 12 aa],0.6541 ± 0.0036,0.652 ± 0.011
KTSPTCHNMFDV [SDD4 C-terminal 12 aa],0.7283 ± 0.0018,0.6781 ± 0.00075
SVFLLNITYLLD [YOR314W C-terminal 12 aa],0.236 ± 0.0099,0.268 ± 0.018
VQSTDIAAMQKL [EFB1 C-terminal 12 aa],0.721 ± 0.014,0.683 ± 0.035
FRSSAGLRSSKV [MIC10 C-terminal 12 aa],0.742 ± 0.016,0.706 ± 0.011
DISDKIRRMQSR [MGP12 C-terminal 12 aa],0.692 ± 0.0073,0.777 ± 0.16
RIEQNRPDDGVY [FMP16 C-terminal 12 aa],0.682 ± 0.068,0.65 ± 0.017
IKGWFVNGQVPR [PEX17 C-terminal 12 aa],0.716 ± 0.0072,0.674 ± 0.029
FAQDLMKCTYKI [NUP145 C-terminal 12 aa],0.708 ± 0.0095,0.656 ± 0.018
LLLKVEKKGSKK [HTZ1 C-terminal 12 aa],0.706 ± 0.034,0.716 ± 0.041
ARGCCEVTSKRF [YGL188C C-terminal 12 aa],0.683 ± 0.011,0.676 ± 0.0099
TGQVGVPTISQV [NCE102 C-terminal 12 aa],0.687 ± 0.021,0.6819 ± 0.0068

Sequence,protein stability index [1],protein stability index (genetic background: wild type)
LNDIGDPTKTVQ [YPL025C C-terminal 12 aa],0.689 ± 0.0087,0.705 ± 0.0072
LVEILDCEIRTL [MIC60 C-terminal 12 aa],0.6827 ± 0.0058,0.6707 ± 0.0035
DLLNSVVVQRWA [SHP1 C-terminal 12 aa],0.697 ± 0.012,0.702 ± 0.034
LILQRLKTSLKI [GFD1 C-terminal 12 aa],0.617 ± 0.024,0.668 ± 0.03
KARLTEEQHRHE [CWC21 C-terminal 12 aa],0.705 ± 0.0052,0.697 ± 0.019
DSTMKIWSPGYQ [STE4 C-terminal 12 aa],0.7158 ± 0.00073,0.728 ± 0.011
RYENFINMARHK [YOR097C C-terminal 12 aa],0.816 ± 0.054,–
LKFEPTQEIVES [ITR2 C-terminal 12 aa],0.7054 ± 0.002,0.677 ± 0.032
KKLDGEVLCRVK [MRPS8 C-terminal 12 aa],0.659 ± 0.021,0.6437 ± 0.0055
ALNRSAIIKDDK [DDP1 C-terminal 12 aa],0.703 ± 0.0071,0.708 ± 0.01
AQGKLIMKVEGF [AST2 C-terminal 12 aa],0.698 ± 0.03,0.72 ± 0.024
FEVDVDSLFKLY [MET1 C-terminal 12 aa],0.707 ± 0.018,0.442 ± 0.0068
RTTGHNLKQDFN [BUD4 C-terminal 12 aa],0.696 ± 0.022,0.653 ± 0.017
RATLNSVNSFLM [RIT1 C-terminal 12 aa],0.681 ± 0.013,0.673 ± 0.023
NDTIKLNQSIYS [ASK10 C-terminal 12 aa],0.701 ± 0.02,0.7048 ± 0.0015
DTSSTVEKKQKT [CCL1 C-terminal 12 aa],0.686 ± 0.032,0.692 ± 0.038
GKFKSAVFEHAG [SRV2 C-terminal 12 aa],0.703 ± 0.026,0.71 ± 0.019
VNGELKYVKPED [AFT1 C-terminal 12 aa],0.6945 ± 0.0046,0.6909 ± 0.0017
SILRIDDIAFSR [CCT4 C-terminal 12 aa],0.739 ± 0.033,0.71 ± 0.034
